Experimental findings from US20060018915A1 (EPIMUNNE, published 2006) are described below.

What all share (test): HLA binding, candidate-epitope table; assay not described
Test [1] has as its target T1, A*0301 (human, UniProt P61769 21-119).
T1 construct: MHC class I molecule; form in the assay not described; also called HLA-A*0301

In test [2] the target is T2, A*3101 (human, UniProt P61769 21-119, limits assumed).
T2 construct: MHC class I molecule; form in the assay not described; also called HLA-A*3101

Test [3] deals with T3, A*6801 (human, UniProt P61769 21-119, limits assumed).
T3 construct: MHC class I molecule; form in the assay not described; also called HLA-A*6801

Test [4] addresses T4, A*0101 (human, UniProt P61769 21-119).
T4 construct: MHC class I molecule; form in the assay not described; also called HLA-A*0101

The term IC50 denotes the concentration that gives 50% inhibition. Low values mean greater potency, high ones weaker potency.

T2 sequence (P61769 21-119 limits assumed, chain 2 of 2, other chains not shown): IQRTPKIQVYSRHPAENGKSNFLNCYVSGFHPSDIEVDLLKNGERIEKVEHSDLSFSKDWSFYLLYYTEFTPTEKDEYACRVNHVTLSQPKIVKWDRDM
T1 sequence (P61769 21-119 limits assumed, chain 2 of 2, other chains not shown): as above
T4 sequence (P61769 21-119 limits assumed, chain 2 of 2, other chains not shown): as above
T3 sequence (P61769 21-119 limits assumed, chain 2 of 2, other chains not shown): as above

As to VVFGILIKR (also called 1095.51) [Her2/neu.669], the IC50 in test [1] is 100 nM; in test [2], 13 nM; in test [3], 4 nM.

In test [4], GSDCTTIHYNY (also called 52.0136) [p53.226] registered a concentration for half-maximal inhibition (IC50) of 68 nM.
